The values below come from the supplement of paper PMC10567573.

First the molecules themselves.
B1: SPDEF (parent)
chain: FQELAGKELCAMSEEQFRQRSPLG
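Further: lentivirally expressed fusions sorted by FACS into six bins by GFP to DsRed ratio, PSI derived from sequencing read proportions per bin multiplied by bin number.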

The variants in this data set derive from B1. The data set can be described thus: protein stability index of a GFP-peptide fusion (GPS, HEK-293T) (PSI 1-6); higher = more stable. Particulars: c terminus: a fixed tail appended.
For the variant FQELAGKELCAMSEEQFRQRSPLF [G24F], the protein stability index came to 2.05.

For the variant FQELAGKELCAMSEEQFRQRSPLA [G24A], the protein stability index was found to be 2.94. On to FQELAGKELCAMSEEQFRQRSPLT [G24T], for which the protein stability index turned out to be 2.76. As for FQELAGKELCAMSEEQFRQRSPLE [G24E], the protein stability index turned out to be 2.56. On to FQELAGKELCAMSEEQFRQRSPLQ [G24Q], for which the protein stability index is 2.44. For FQELAGKELCAMSEEQFRQRSPLS [G24S], the protein stability index turned out to be 2.74.

With FQELAGKELCAMSEEQFRQRSPLW [G24W], the protein stability index was 1.93. FQELAGKELCAMSEEQFRQRSPLV [G24V]: the protein stability index was found to be 2.43. The value for FQELAGKELCAMSEEQFRQRSPLN [G24N] was 2.72; that for FQELAGKELCAMSEEQFRQRSPLP [G24P] was 2.89. Next, FQELAGKELCAMSEEQFRQRSPLI [G24I]: 2.1; FQELAGKELCAMSEEQFRQRSPLH [G24H]: 2.44; FQELAGKELCAMSEEQFRQRSPLK [G24K]: 3.44. For FQELAGKELCAMSEEQFRQRSPLC [G24C], the protein stability index is 2.49.

On to FQELAGKELCAMSEEQFRQRSPLD [G24D], for which the protein stability index turned out to be 3.14.

Take FQELAGKELCAMSEEQFRQRSPLR [G24R]: the protein stability index came out at 2.42.

For FQELAGKELCAMSEEQFRQRSPLM [G24M], the protein stability index was determined as 2.78. Take FQELAGKELCAMSEEQFRQRSPLY [G24Y]: the protein stability index came to 2.12.

On to FQELAGKELCAMSEEQFRQRSPLL [G24L], for which the protein stability index worked out at 2.67.

FQELAGKELCAMSEEQFRQRSPMG [L23M]: the protein stability index amounted to 2.84. As for FQELAGKELCAMSEEQFRQRSPWG [L23W], the protein stability index turned out to be 1.69. Regarding FQELAGKELCAMSEEQFRQRSPAG [L23A], the protein stability index was 3.02. With FQELAGKELCAMSEEQFRQRSPHG [L23H], the protein stability index was determined as 3.18. Next, FQELAGKELCAMSEEQFRQRSPSG [L23S]: 3.16; FQELAGKELCAMSEEQFRQRSPYG [L23Y]: 2.59; FQELAGKELCAMSEEQFRQRSPPG [L23P]: 3.25. The value for FQELAGKELCAMSEEQFRQRSPCG [L23C] was 2.63; that for FQELAGKELCAMSEEQFRQRSPDG [L23D] was 2.8. The value for FQELAGKELCAMSEEQFRQRSPIG [L23I] was 2.9.

For the variant FQELAGKELCAMSEEQFRQRSPGG [L23G], the protein stability index came to 3.31. In the case of FQELAGKELCAMSEEQFRQRSPVG [L23V], the protein stability index is 3.09. For the variant FQELAGKELCAMSEEQFRQRSPRG [L23R], the protein stability index is 3.24.

Consider FQELAGKELCAMSEEQFRQRSPNG [L23N], for which the protein stability index is 3.46. FQELAGKELCAMSEEQFRQRSPQG [L23Q]: the protein stability index came out at 3.58. For the variant FQELAGKELCAMSEEQFRQRSPFG [L23F], the protein stability index is 2.78.

On to FQELAGKELCAMSEEQFRQRSPTG [L23T], for which the protein stability index is 2.77.

Turning to FQELAGKELCAMSEEQFRQRSPEG [L23E], the protein stability index came to 3.48. As for FQELAGKELCAMSEEQFRQRSPKG [L23K], the protein stability index was 3.21.

As for FQELAGKELCAMSEEQFEQRSPLG [R18E], the protein stability index is 3.31. For the variant FQELAGKELCAMSEEQFSQRSPLG [R18S], the protein stability index came out at 2.82. Regarding FQELAGKELCAMSEEQFNQRSPLG [R18N], the protein stability index turned out to be 2.96. The value for FQELAGKELCAMSEEQFLQRSPLG [R18L] was 2.76; that for FQELAGKELCAMSEEQFVQRSPLG [R18V] was 2.8; that for FQELAGKELCAMSEEQFHQRSPLG [R18H] was 2.64. As to FQELAGKELCAMSEEQFIQRSPLG [R18I], the protein stability index stood at 2.73. Take FQELAGKELCAMSEEQFYQRSPLG [R18Y]: the protein stability index was 2.29.

Consider FQELAGKELCAMSEEQFCQRSPLG [R18C], for which the protein stability index stood at 2.51.

On to FQELAGKELCAMSEEQFQQRSPLG [R18Q], for which the protein stability index was determined as 2.81.

Regarding FQELAGKELCAMSEEQFTQRSPLG [R18T], the protein stability index came to 2.83.

On to FQELAGKELCAMSEEQFPQRSPLG [R18P], for which the protein stability index worked out at 2.92. Take FQELAGKELCAMSEEQFAQRSPLG [R18A]: the protein stability index was 2.93. Next, FQELAGKELCAMSEEQFDQRSPLG [R18D]: 3.37.

For the variant FQELAGKELCAMSEEQFWQRSPLG [R18W], the protein stability index amounted to 2. With FQELAGKELCAMSEEQFMQRSPLG [R18M], the protein stability index stood at 2.51. The value for FQELAGKELCAMSEEQFKQRSPLG [R18K] was 2.46. As for FQELAGKELCAMSEEQFFQRSPLG [R18F], the protein stability index stood at 2.21.

In the case of FQELAGKELCAMSEEQFGQRSPLG [R18G], the protein stability index turned out to be 2.9.

On to FQELAGKELCAMSEEQFRQYSPLG [R20Y], for which the protein stability index was determined as 2.43. Next, FQELAGKELCAMSEEQFRQVSPLG [R20V]: 2.1; FQELAGKELCAMSEEQFRQLSPLG [R20L]: 2.55.

FQELAGKELCAMSEEQFRQGSPLG [R20G]: the protein stability index stood at 2.49. Take FQELAGKELCAMSEEQFRQKSPLG [R20K]: the protein stability index turned out to be 2.51. On to FQELAGKELCAMSEEQFRQHSPLG [R20H], for which the protein stability index stood at 2.74. Turning to FQELAGKELCAMSEEQFRQSSPLG [R20S], the protein stability index was determined as 2.88. For the variant FQELAGKELCAMSEEQFRQDSPLG [R20D], the protein stability index is 3.47. On to FQELAGKELCAMSEEQFRQESPLG [R20E], for which the protein stability index was 3.71.

For FQELAGKELCAMSEEQFRQCSPLG [R20C], the protein stability index was 2.4. With FQELAGKELCAMSEEQFRQTSPLG [R20T], the protein stability index is 2.91.

As for FQELAGKELCAMSEEQFRQASPLG [R20A], the protein stability index is 2.79.

As to FQELAGKELCAMSEEQFRQMSPLG [R20M], the protein stability index amounted to 2.1. On to FQELAGKELCAMSEEQFRQISPLG [R20I], for which the protein stability index was 2.86. Regarding FQELAGKELCAMSEEQFRQFSPLG [R20F], the protein stability index worked out at 2.2.

For FQELAGKELCAMSEEQFRQWSPLG [R20W], the protein stability index turned out to be 2.52. Next, FQELAGKELCAMSEEQFRQNSPLG [R20N]: 3.04; FQELAGKELCAMSEEQFRQQSPLG [R20Q]: 2.72. Regarding FQELAGKELCAMSEEQFRQPSPLG [R20P], the protein stability index came to 2.58. As for FQELAGKELCAMSEEQFRMRSPLG [Q19M], the protein stability index turned out to be 2.33. Regarding FQELAGKELCAMSEEQFRSRSPLG [Q19S], the protein stability index is 2.45. Next, FQELAGKELCAMSEEQFRHRSPLG [Q19H]: 2.93. The value for FQELAGKELCAMSEEQFRKRSPLG [Q19K] was 2.74; that for FQELAGKELCAMSEEQFRCRSPLG [Q19C] was 2.67. FQELAGKELCAMSEEQFRVRSPLG [Q19V]: the protein stability index amounted to 2.42.

Regarding FQELAGKELCAMSEEQFRTRSPLG [Q19T], the protein stability index amounted to 3.11. As for FQELAGKELCAMSEEQFRGRSPLG [Q19G], the protein stability index came to 2.53. As for FQELAGKELCAMSEEQFRWRSPLG [Q19W], the protein stability index came out at 1.59. Next, FQELAGKELCAMSEEQFRDRSPLG [Q19D]: 2.87. On to FQELAGKELCAMSEEQFRLRSPLG [Q19L], for which the protein stability index was found to be 2.24. Consider FQELAGKELCAMSEEQFRYRSPLG [Q19Y], for which the protein stability index amounted to 2.3. The value for FQELAGKELCAMSEEQFRERSPLG [Q19E] was 4.17. As for FQELAGKELCAMSEEQFRPRSPLG [Q19P], the protein stability index amounted to 2.74. The value for FQELAGKELCAMSEEQFRNRSPLG [Q19N] was 2.11; that for FQELAGKELCAMSEEQFRIRSPLG [Q19I] was 2.39. FQELAGKELCAMSEEQFRRRSPLG [Q19R]: the protein stability index was 2.4. In the case of FQELAGKELCAMSEEQFRARSPLG [Q19A], the protein stability index was found to be 2.67.

On to FQELAGKELCAMSEEQFRFRSPLG [Q19F], for which the protein stability index was 2.23.
